This data set can be described thus: yeast display, Sf9 membrane polyspecificity reagent, FACS + sequencing; frameworks hold sequencing errors. Put shortly:
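In a synthetic yeast display library (Saccharomyces cerevisiae BJ5465), nanobody expression was induced with galactose for 36–48 hours. FACS gates were set low and high (top ~1%) using anti-HA fluorescence for expression and streptavidin fluorescence for binding of the Sf9 membrane reagent. Each polyreactivity label is drawn from the gate of origin.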
For the sequence “QVQLVESGGGLVQAGGSLRLSCAASGTTFGAYAMGWYRQARGKERELVAVITWNDGSTYYADSVKGRFTISRDNAKNTVYLHMNSLKPEDTAVYYCAAEYAVSWSAFDWNYYYWGQGTQVTVSS”, the “polyreactivity (PSR sort gate)” value was “high polyreactivity”.

As to “QVHIVDSCGGLVKAGGSLRLSSAASGSIFHPYTMVWYRQAPGKEMELVAGISQSTDSTYYADSLKGRFTISRDYAKTTVYFQMISLKPEDTAVYYCNRVYDLPLSVVEVDYWGQGTQVTVSS”, the “polyreactivity (PSR sort gate)” value was “low polyreactivity”.

As for “QVQLVESGGGLVQAGGSLRLSCAASGSIFVWYAMGWYRQAPGKERELVAVISYGGDRTSYADSVKGRFTISRDNAKNTVYLQMNSLKPEDTAVYYCAARPFYRGYYYWGQGTQVTVSS”, the “polyreactivity (PSR sort gate)” value was “high polyreactivity”.

For the sequence “QVQLVESGGGLVQAGGSLRLSCAASGSIFTGNAMGWYRPAPGKERELVAAISSSGGSTYYADSVKGRFTISRDNSKNTVYLQMNSLKPEDTAVYYSAAYNYFLQYDYWGHGTQVTVSS”, the “polyreactivity (PSR sort gate)” value is listed as “low polyreactivity”.

“QVQLVESGGGLVQAGGSLRLSCAASGRIFYANAMGWYRQAPGKERELVAGISSGGITNYADSVKGRFTISRDNAKITVYLQMNSLKPEDTAVYYCAVESWNRWRNRNDYWGQGTQVTVSS”: the “polyreactivity (PSR sort gate)” value is reported as “low polyreactivity”.

On to “QVQLVESGGGLVQAGGSLRLSCAASGSTFWENSMGWYRQAPGKERELVAAISWGGGSTYYADSVKGRFTISRDNAKNTVYLQMNSLKPEDTAGYYCAADQTSPQFLTSYGGYNYWGQGTQVTVSS”, for which the “polyreactivity (PSR sort gate)” value is given as “low polyreactivity”.

As for “QVQLEDSGGGLVQAGARLRLSCAASGSTFAQNAMGRYRQAPGKERELVAAITYSGGSTYYADSVKGRFSISRDNAKNTVYLQMNSLKPEDTAVYYCAADVWWSYYRYDYWGQATQVTVSS”, the “polyreactivity (PSR sort gate)” value is “low polyreactivity”.

For “QVQLVESGGGIVQAGGSLRLSCAASGRNFSRYAMGWYRQAPGKERELVAVISRSGADTYYADSVKGRFTISRDNAKNTVYLQMNSLKPEDTAVYYCNAYSARRPHPMGYDYWGEGTQVTVSS”, the “polyreactivity (PSR sort gate)” value is given as “high polyreactivity”.

Turning to “QVQLVESGGGLVQAGGSLRLSCAASGFTFLSNAMGWYRQAPVKERELVAGISWDAGSTNYADSVKGRVTISRDNAKNTVYLQMNSLKPEDTAVYYCNADDSTGSRFYIEYDYWGQGTQVTVSS”, the “polyreactivity (PSR sort gate)” value is “low polyreactivity”.

As for “QVQLGESGGGLVQAGGSLRLSCAASGFTFAYYAMGWYRQAPGKERELVAAISERGGSTYYADSVKGRFTISRDNAKNTVYLQMNILKPEDTAVYYCARTFWDYPWYQSSYYSWGQGTQVTLSS”, the “polyreactivity (PSR sort gate)” value was “low polyreactivity”.

“QVQLVESGGGLVQAGGSLRLSCAASGSNFVTYAMGWYRQAPGKERELVAAISYSGGSTYADSVKGRFTISRDNAKNTVYLQMNILKPEDTAVYYCNTDTSVDVRFDYWGQGTQVTVSS”: the “polyreactivity (PSR sort gate)” value is “low polyreactivity”.

As to “QVQLVESGGGLVQAGGSIRLSCAASGSIFGAYAMGWYRQAPGKERELVATITLRDGSTYYADSVKGRFTSSRDNAKNTVYLQMNSLKPEDTAVYYCATYYSAINYGWSKTILYDYWGQGTQVTVSS”, the “polyreactivity (PSR sort gate)” value is on record as “low polyreactivity”.

For “QVQLVESGGGLVQAGGSLRLSCAASGSIFSANAMGWYRQAPGKERELLAAISSSGNTNYADSVKGRFTISRDNAKNTVYLQMNSLKPEDTAVYYCAVELKQVTPGLGYITLDYWGQGTQVTVSS”, the “polyreactivity (PSR sort gate)” value is given as “low polyreactivity”.

Consider “QVQLVESGGGLVQAGGSLRLSCAASGRTFYRYAMGWYRQAPGKERELVATISRSGGSTYYADSVKGRFTISRDNAKYTVYLQMKSLNPEDTAVYYCNAEGYPWGFYTYDYWGQGTQVTVSS”, for which the “polyreactivity (PSR sort gate)” value was “low polyreactivity”.

On to “QVQLVESGGGLVQAGGSLRLSCAASGYILGVYAMGWYRQAPGKERDLVASISRSGGSTYYADSVKGRFTISRDNAKNTVYLQMNSLKTEDSAVYYCSNRSRTAHFRLRYDYWGQGTQVTVSS”, for which the “polyreactivity (PSR sort gate)” value was “low polyreactivity”.

Regarding “QVQLVESGGGLVQAGGSLRLSCAASGIIFRWYTKGWSRPAPGKERELVAAINYSSGDTYADSEKGRFTISRDNAKNTVYLQMNILKPEDTAVYYCAAEDPEYATYWYKYGYWGQGTQVNVSS”, the “polyreactivity (PSR sort gate)” value is on record as “low polyreactivity”.
